Reference: patent publication US20260250398A1 (ANTLERA THERAPEUTICS, published 2026)

T1: LRP6 (low-density lipoprotein receptor-related protein 6) (UniProt O75581 20-1370, limits assumed)
T1 sequence (looked up): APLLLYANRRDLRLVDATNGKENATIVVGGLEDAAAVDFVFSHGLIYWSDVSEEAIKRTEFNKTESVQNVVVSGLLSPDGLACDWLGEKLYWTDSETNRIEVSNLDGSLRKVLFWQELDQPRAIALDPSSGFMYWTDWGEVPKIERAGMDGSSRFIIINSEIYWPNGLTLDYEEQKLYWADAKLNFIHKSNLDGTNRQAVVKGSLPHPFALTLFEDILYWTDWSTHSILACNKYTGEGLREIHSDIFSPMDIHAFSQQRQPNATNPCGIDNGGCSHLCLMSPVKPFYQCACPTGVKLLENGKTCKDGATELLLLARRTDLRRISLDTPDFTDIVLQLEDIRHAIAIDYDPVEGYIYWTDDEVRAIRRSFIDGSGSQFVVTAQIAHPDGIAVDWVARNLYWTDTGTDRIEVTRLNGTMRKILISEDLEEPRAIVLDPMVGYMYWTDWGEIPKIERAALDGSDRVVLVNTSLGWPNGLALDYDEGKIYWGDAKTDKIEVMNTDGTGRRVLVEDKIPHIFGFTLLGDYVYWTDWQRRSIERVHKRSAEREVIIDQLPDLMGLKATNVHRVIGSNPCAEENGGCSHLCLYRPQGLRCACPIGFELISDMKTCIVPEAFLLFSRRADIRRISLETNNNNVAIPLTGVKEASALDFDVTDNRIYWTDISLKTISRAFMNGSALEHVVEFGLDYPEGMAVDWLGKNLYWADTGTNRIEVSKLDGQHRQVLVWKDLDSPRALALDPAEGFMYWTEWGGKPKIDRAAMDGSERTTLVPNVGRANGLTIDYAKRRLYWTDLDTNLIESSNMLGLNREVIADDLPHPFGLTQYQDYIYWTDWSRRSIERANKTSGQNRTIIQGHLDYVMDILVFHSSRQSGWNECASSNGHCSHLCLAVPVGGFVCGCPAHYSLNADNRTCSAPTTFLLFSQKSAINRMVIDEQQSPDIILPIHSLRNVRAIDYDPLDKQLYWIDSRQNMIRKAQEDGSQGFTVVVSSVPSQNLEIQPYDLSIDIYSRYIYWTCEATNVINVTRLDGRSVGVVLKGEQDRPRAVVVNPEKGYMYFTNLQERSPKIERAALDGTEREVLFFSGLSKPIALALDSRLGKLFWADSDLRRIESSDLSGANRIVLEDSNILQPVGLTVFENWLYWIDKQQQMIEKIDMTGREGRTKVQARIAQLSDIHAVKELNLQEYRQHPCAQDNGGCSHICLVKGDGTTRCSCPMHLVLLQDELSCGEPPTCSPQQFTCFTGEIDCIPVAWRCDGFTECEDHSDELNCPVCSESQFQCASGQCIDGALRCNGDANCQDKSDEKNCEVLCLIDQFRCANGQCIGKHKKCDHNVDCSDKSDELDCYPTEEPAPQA


Legend:
[1] = biological target: T1, LRP6 (low-density lipoprotein …); experiment: cell-based or functional assay
[2] = biological target: T1, LRP6 (low-density lipoprotein …); experiment: cell-based or functional assay; remark: listed apart in the source

Binder | TOPFLASH Maximal Signal (% Wnt3a maxima) [1] [% Wnt3a maxima] | TOPFLASH % Wnt Maxima [2] [% Wnt Maxima]
Fab-Dia (paratopes 5016; 2540/2542) (bispecific antibody) heavy: EVQLVESGGGLVQPGGSLRLSCAASGFNIHSSSIHWVRQAPGKGLEWVAATYSSFGSITYADSVKGRFTISADTSKNTAYLQMNSLRAEDTAVYYCARYHHPFGYALDYWGQGTLVTVSSASTKGPSVFPLAPSSKSTSGGTAALGCLVKDYFPEPVTVSWNSGALTSGVHTFPAVLQSSGLYSLSSVVTVPSSSLGTQTYICNVNHKPSNTKVDKKVEPKSCDKTHTGGSGGEVQLVESGGGLVQPGGSLRLSCAASGFTISYSSIHWVRQAPGKGLEWVASISPYYGYTYYADSVKGRFTISADTSKNTAYLQMNSLRAEDTAVYYCARSSYFPWFSAMDYWGQGTLVTVSSGGGGSDIQMTQSPSSLSASVGDRVTITCRASQSVSSAVAWYQQKPGKAPKLLIYSASSLYSGVPSRFSGSRSGTDFTLTISSLQPEDFATYYCQQYYWPITFGQGTKVEIK light: DIQMTQSPSSLSASVGDRVTITCRASQSVSSAVAWYQQKPGKAPKLLIYSASSLYSGVPSRFSGSRSGTDFTLTISSLQPEDFATYYCQQGVYLFTFGQGTKVEIKRTVAAPSVFIFPPSDEQLKSGTASVVCLLNNFYPREAKVQWKVDNALQSGNSQESVTEQDSKDSTYSLSSTLTLSKADYEKHKVYACEVTHQGLSSPVTKSFNRGECGGGGSEVQLVESGGGLVQPGGSLRLSCAASGFTISSYYIHWVRQAPGKGLEWVASIYSSYGYTSYADSVKGRFTISADTSKNTAYLQMNSLRAEDTAVYYCARTVRGSKKPYFSGWAMDYWGQGTLVTVSSGGGGSDIQMTQSPSSLSASVGDRVTITCRASQSVSSAVAWYQQKPGKAPKLLIYSASSLYSGVPSRFSGSRSGTDFTLTISSLQPEDFATYYCQQYYFLITFGQGTKVEIK | 42 | 
CH3 (Dia-CH3-Dia; paratopes 5019; 2539) (bispecific antibody) MNLLLILTFVAAAVAEFEVQLVESGGGLVQPGGSLRLSCAASGFNIGSSSIHWVRQAPGKGLEWVASIYSAFASTSYADSVKGRFTISADTSKNTAYLQMNSLRAEDTAVYYCARYHFPFGFALDYWGQGTLVTVSSGGGGSDIQMTQSPSSLSASVGDRVTITCRASQSVSSAVAWYQQKPGKAPKLLIYSASSLYSGVPSRFSGSRSGTDFTLTISSLQPEDFATYYCQQGVYLFTFGQGTKVEIKDKTHTKVEPKTSDKTHTCPPCPGQPREPQVYTLPPSREEMTKNQVSLTCLVKGFYPSDIAVEWESNGQPENNYKTTPPVLDSDGSFFLYSKLTVDKSRWQQGNVFSCSVMHEALHNHYTQKSLSLSPGKGTTAASGSSGGSSSGAGRTEVQLVESGGGLVQPGGSLRLSCAASGFNISYSSIHWVRQAPGKGLEWVAYISSYYGYTYYADSVKGRFTISADTSKNTAYLQMNSLRAEDTAVYYCARAHYFPWAGAMDYWGQGTLVTVSSGGGGSDIQMTQSPSSLSASVGDRVTITCRASQSVSSAVAWYQQKPGKAPKLLIYSASSLYSGVPSRFSGSRSGTDFTLTISSLQPEDFATYYCQQYSWGPFTFGQGTKVEIK | 22 | 
CT0003 (Table 5: FZD Diabody-Fc-LRP scFv; paratopes 5016; 2539, 2542) (bispecific antibody) chain 1: MNLLLILTFVAAAVAEFEVQLVESGGGLVQPGGSLRLSCAASGFNISSYYIHWVRQAPGKGLEWVASIYSSYGYTSYADSVKGRFTISADTSKNTAYLQMNSLRAEDTAVYYCARTVRGSKKPYFSGWAMDYWGQGTLVTVSSGGGGSDIQMTQSPSSLSASVGDRVTITCRASQSVSSAVAWYQQKPGKAPKLLIYSASSLYSGVPSRFSGSRSGTDFTLTISSLQPEDFATYYCQQYSWGPFTFGQGTKVEIKLEDKTHTKVEPKSSDKTHNCPPCPAPELLGGPSVFLFPPKPKDTLMISRTPEVTCVVVDVSHEDPEVKFNWYVDGVEVHNAKTKPREEQYNSTYRVVSVLTVLHQDWLNGKEYKCKVSNKALPAPIEKTISKAKGQPREPQVYTLPPIRELMTSNQVSLSCAVKGFYPSDIAVEWESNGQPENNYKTTPPVLDSDGSFFLVSKLTVDKSRWQQGNVFSCSVMHEALHNHYTQKSLSLSPGKSGSETPGTSESATPESGGGEVQLVESGGGLVQPGGSLRLSCAASGFNIHSSSIHWVRQAPGKGLEWVAATYSSFGSITYADSVKGRFTISADTSKNTAYLQMNSLRAEDTAVYYCARYHHPFGYALDYWGQGTLVTVSSGTTAASGSSGGSSSGADIQMTQSPSSLSASVGDRVTITCRASQSVSSAVAWYQQKPGKAPKLLIYSASSLYSGVPSRFSGSRSGTDFTLTISSLQPEDFATYYCQQGVYLFTFGQGTKVEIK chain 2: MNLLLILTFVAAAVAEFEVQLVESGGGLVQPGGSLRLSCAASGFNISYSSIHWVRQAPGKGLEWVAYISSYYGYTYYADSVKGRFTISADTSKNTAYLQMNSLRAEDTAVYYCARAHYFPWAGAMDYWGQGTLVTVSSGGGGDIQMTQSPSSLSASVGDRVTITCRASQSVSSAVAWYQQKPGKAPKLLIYSASSLYSGVPSRFSGSRSGTDFTLTISSLQPEDFATYYCQQYYWPITFGQGTKVEIKLEDKTHTKVEPKTSDKTHTCPPCPAPELLGGPSVFLFPPKPKDTLMISRTPEVTCVVVDVSHEDPEVKFNWYVDGVEVHNAKTKPREEQYNSTYRVVSVLTVLHQDWLNGKEYKCKVSNKALPAPIEKTISKAKGQPREPMVFDLPPSREEMTKNQVSLWCMVKGFYPSDIAVEWESNGQPENNYKTTPPVLDSDGSFFLYSKLTVDKSRWQQGNVFSCSVMHEALHNHYTQKSLSLSPGKSGSETPGTSESATPESGGGEVQLVESGGGLVQPGGSLRLSCAASGFNIHSSSIHWVRQAPGKGLEWVAATYSSFGSITYADSVKGRFTISADTSKNTAYLQMNSLRAEDTAVYYCARYHHPFGYALDYWGQGTLVTVSSGTTAASGSSGGSSSGADIQMTQSPSSLSASVGDRVTITCRASQSVSSAVAWYQQKPGKAPKLLIYSASSLYSGVPSRFSGSRSGTDFTLTISSLQPEDFATYYCQQGVYLFTFGQGTKVEIK |  | 42
CM0299 (FZD IgG-LRP Diabody; paratopes 5016; 2539) (bispecific antibody) heavy: not shown light: DIQMTQSPSSLSASVGDRVTITCRASQSVSSAVAWYQQKPGKAPKLLIYSASSLYSGVPSRFSGSRSGTDFTLTISSLQPEDFATYYCQQGVYLFTFGQGTKVEIKRTVAAPSVFIFPPSDEQLKSGTASVVCLLNNFYPREAKVQWKVDNALQSGNSQESVTEQDSKDSTYSLSSTLTLSKADYEKHKVYACEVTHQGLSSPVTKSFNRGEC |  | 14
CM0300 (FZD IgG-LRP scFv; paratopes 5016; 2539) (bispecific antibody) heavy: not shown light: DIQMTQSPSSLSASVGDRVTITCRASQSVSSAVAWYQQKPGKAPKLLIYSASSLYSGVPSRFSGSRSGTDFTLTISSLQPEDFATYYCQQGVYLFTFGQGTKVEIKRTVAAPSVFIFPPSDEQLKSGTASVVCLLNNFYPREAKVQWKVDNALQSGNSQESVTEQDSKDSTYSLSSTLTLSKADYEKHKVYACEVTHQGLSSPVTKSFNRGEC |  | 5
CM0301 (FZD IgG-LRP scFv; paratopes 5016; 2542) (bispecific antibody) heavy: not shown light: DIQMTQSPSSLSASVGDRVTITCRASQSVSSAVAWYQQKPGKAPKLLIYSASSLYSGVPSRFSGSRSGTDFTLTISSLQPEDFATYYCQQGVYLFTFGQGTKVEIKRTVAAPSVFIFPPSDEQLKSGTASVVCLLNNFYPREAKVQWKVDNALQSGNSQESVTEQDSKDSTYSLSSTLTLSKADYEKHKVYACEVTHQGLSSPVTKSFNRGEC |  | 1
